The results in this text go back to publication PMC5339710, “Single-molecule studies reveal reciprocating of WRN helicase core along ssDNA during DNA unwinding”.

For series [1], the target named is T1, WRN helicase core (WRN512-1213) (Gallus gallus, UniProt D3KR65 512-1213).
T1 sequence: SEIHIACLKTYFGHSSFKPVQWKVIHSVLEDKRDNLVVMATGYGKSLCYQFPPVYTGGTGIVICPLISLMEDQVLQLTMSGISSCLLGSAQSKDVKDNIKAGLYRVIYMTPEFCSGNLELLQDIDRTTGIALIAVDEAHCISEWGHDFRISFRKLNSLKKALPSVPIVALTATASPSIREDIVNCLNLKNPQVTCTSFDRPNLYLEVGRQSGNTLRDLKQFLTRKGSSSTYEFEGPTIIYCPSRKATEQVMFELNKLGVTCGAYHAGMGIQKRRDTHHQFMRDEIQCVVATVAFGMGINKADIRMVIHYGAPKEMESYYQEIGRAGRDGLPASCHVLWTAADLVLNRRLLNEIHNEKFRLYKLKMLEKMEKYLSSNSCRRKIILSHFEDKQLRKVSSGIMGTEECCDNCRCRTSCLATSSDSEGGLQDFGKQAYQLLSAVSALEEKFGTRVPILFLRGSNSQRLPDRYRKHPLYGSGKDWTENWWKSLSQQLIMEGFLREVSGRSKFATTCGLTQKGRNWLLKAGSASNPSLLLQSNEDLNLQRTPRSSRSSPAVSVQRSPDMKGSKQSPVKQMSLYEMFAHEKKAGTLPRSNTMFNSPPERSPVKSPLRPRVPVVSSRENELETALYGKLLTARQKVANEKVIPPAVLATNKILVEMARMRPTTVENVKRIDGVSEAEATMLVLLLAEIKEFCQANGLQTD
Put plainly: fluorescence polarization anisotropy; 0.2 mM ADP; 5 mM Mg2+; Hill coefficient 1; 20 mM Tris-HCl pH 8.0, 50 mM KCl, 5 mM MgCl2, 5 nM DNA, 25 C, 5 min equilibration. Conditions: protein: recombinant; tags: 6xHis-SUMO at N-terminus, cleaved with Ulp; label: fluorescein (FAM), position by colour only; single strand.

The target of series [2] is T1, WRN helicase core (WRN512-1213). Put plainly: fluorescence polarization anisotropy; 0.2 mM ATPgS; 5 mM Mg2+; Hill coefficient 1; 20 mM Tris-HCl pH 8.0, 50 mM KCl, 5 mM MgCl2, 5 nM DNA, 25 C, 5 min equilibration. Conditions: protein: recombinant; tags: 6xHis-SUMO at N-terminus, cleaved with Ulp; label: fluorescein (FAM), position by colour only; single strand.
The target is the same in series [3]. Put plainly: fluorescence polarization anisotropy; 5 mM Mg2+; no nucleotide stated; Hill coefficient 2; 20 mM Tris-HCl pH 8.0, 50 mM KCl, 5 mM MgCl2, 5 nM DNA, 25 C, 5 min equilibration. Conditions: protein: recombinant; tags: 6xHis-SUMO at N-terminus, cleaved with Ulp; label: fluorescein (FAM), position by colour only; blunt.

As to CTCTGCTCGACGGATT (ssDNA) [16nt-FAM], the Kd was 141 ± 10.5 nM in series [1] and 76.6 ± 4.2 nM in series [2].

B1: 16bp-FAM (dsDNA)
DNA 1: CTCTGCTCGACGGATT
DNA 2: AATCCGTCGAGCAGAG
In the case of B1, the equilibrium dissociation constant (Kd) in series [3] was 32.2 ± 2.8 nM.
